Reference: US20130089868A1

Biological target: MLS-NR2B (mitochondrial targeting signal sequence, myc-epitope, GST and NR2B residues 1271-1311) [GST: P08515]
Assay: percentage of green fluorescent HEK-293 cells with GFP clustering after Ca^2+ influx (FIG. 5)

- fold increase of the cell count against wild-type GFP-α-CaMKII: > 2 fold
Substance: GFP-T286D-α-CaMKII (from UniProt P11275 1-478) (enzyme)
